# Laboratory results as given in patent US20150197571A1.
# T1: human PD-L2 expressed on 300.19 cells (human) (UniProt Q9BQ51)
# T1 sequence: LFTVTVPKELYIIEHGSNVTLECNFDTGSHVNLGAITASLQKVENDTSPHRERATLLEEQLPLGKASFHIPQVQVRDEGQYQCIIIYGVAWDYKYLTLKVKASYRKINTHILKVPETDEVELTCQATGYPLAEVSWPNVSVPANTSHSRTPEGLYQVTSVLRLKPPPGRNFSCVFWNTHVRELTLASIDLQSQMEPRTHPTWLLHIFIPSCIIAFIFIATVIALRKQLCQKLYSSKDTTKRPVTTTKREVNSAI
# How the values were obtained:
# [1] = molecular target: human PD-L1 expressed on 300.19 cells (human) (UniProt Q9NZQ7); assay: FACS competition, PD-1-Ig on hPD-L1 300 cells, mAb 0.37 ug/ml
# UniProt Q9NZQ7, sequence (Q9NZQ7 19-290): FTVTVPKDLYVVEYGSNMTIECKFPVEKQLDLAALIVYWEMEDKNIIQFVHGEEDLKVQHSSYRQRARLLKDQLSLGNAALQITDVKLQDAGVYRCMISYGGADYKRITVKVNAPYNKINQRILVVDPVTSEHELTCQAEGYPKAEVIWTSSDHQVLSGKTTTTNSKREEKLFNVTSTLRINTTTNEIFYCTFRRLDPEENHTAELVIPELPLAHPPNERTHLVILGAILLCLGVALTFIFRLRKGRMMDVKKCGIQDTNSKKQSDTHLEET
# [2] = molecular target: human PD-L1 expressed on 300.19 cells (human) (UniProt Q9NZQ7); assay: FACS blockade, B7-1-hIgG on 300-hPD-L1 cells, mAb 10 ug/ml
# [3] = molecular target: T1, human PD-L2 expressed on 300.19 cells (human); assay: FACS on 300.19 cells expressing human PD-L2
# [4] = molecular target: T1, human PD-L2 expressed on 300.19 cells (human); assay: FACS competition, PD-1-Ig on hPD-L2 300 cells, mAb 30 ug/ml
# [5] = molecular target: T1, human PD-L2 expressed on 300.19 cells (human); assay: FACS competition, PD-1-Ig on hPD-L2 300 cells, mAb 1.1 ug/ml
# [6] = molecular target: human PD-L1 expressed on 300.19 cells (human) (UniProt Q9NZQ7); assay: FACS blockade, B7-1-hIgG on 300-hPD-L1 cells, mAb 0.156 ug/ml
# [7] = molecular target: T1, human PD-L2 expressed on 300.19 cells (human); assay: FACS blockade, PD-1-hIgG1 on PD-L2 300.19 cells
# [8] = molecular target: human PD-L1 expressed on 300.19 cells (human) (UniProt Q9NZQ7); assay: FACS competition, PD-1-Ig on hPD-L1 300 cells, mAb 1.1 ug/ml
# [9] = molecular target: human PD-L1 expressed on 300.19 cells (human) (UniProt Q9NZQ7); assay: FACS on hPD-L1 300 cells, antibody 0.1 ug/ml
# [10] = molecular target: human PD-L1 expressed on 300.19 cells (human) (UniProt Q9NZQ7); assay: FACS blockade, B7-1-hIgG on 300-hPD-L1 cells, mAb 0.078 ug/ml
# [11] = molecular target: human PD-L1 expressed on 300.19 cells (human) (UniProt Q9NZQ7); assay: FACS blockade, B7-1-hIgG on 300-hPD-L1 cells, mAb 5 ug/ml
# [12] = molecular target: T1, human PD-L2 expressed on 300.19 cells (human); assay: FACS on hPD-L2 300 cells, antibody 1 ug/ml
# [13] = molecular target: T1, human PD-L2 expressed on 300.19 cells (human); assay: FACS on hPD-L2 300 cells, antibody 10 ug/ml
# [14] = molecular target: human PD-L1 expressed on 300.19 cells (human) (UniProt Q9NZQ7); assay: FACS blockade, B7-1-hIgG on 300-hPD-L1 cells, mAb 0.625 ug/ml
# [15] = molecular target: T1, human PD-L2 expressed on 300.19 cells (human); assay: FACS competition, PD-1-Ig on hPD-L2 300 cells, mAb 0.04 ug/ml
# [16] = molecular target: human PD-L1 expressed on 300.19 cells (human) (UniProt Q9NZQ7); assay: FACS blockade, B7-1-hIgG on 300-hPD-L1 cells, mAb 0.0195 ug/ml
# [17] = molecular target: human PD-L1 expressed on 300.19 cells (human) (UniProt Q9NZQ7); assay: FACS blockade, B7-1-hIgG on 300-hPD-L1 cells, mAb 0.313 ug/ml
# [18] = molecular target: human PD-L1 expressed on 300.19 cells (human) (UniProt Q9NZQ7); assay: FACS on 300.19 cells expressing human PD-L1
# [19] = molecular target: T1, human PD-L2 expressed on 300.19 cells (human); assay: FACS competition, PD-1-Ig on hPD-L2 300 cells, mAb 0.12 ug/ml
# [20] = molecular target: human PD-L1 expressed on 300.19 cells (human) (UniProt Q9NZQ7); assay: FACS blockade, B7-1-hIgG on 300-hPD-L1 cells, mAb 1.25 ug/ml
# [21] = molecular target: human PD-L1 expressed on 300.19 cells (human) (UniProt Q9NZQ7); assay: FACS blockade, B7-1-hIgG on 300-hPD-L1 cells, mAb '0.0.39' [sic] ug/ml
# [22] = molecular target: human PD-L1 expressed on 300.19 cells (human) (UniProt Q9NZQ7); assay: FACS blockade, B7-1-hIgG on 300-hPD-L1 cells, mAb 2.5 ug/ml
# [23] = molecular target: human PD-L1 expressed on 300.19 cells (human) (UniProt Q9NZQ7); assay: FACS on hPD-L1 300 cells, antibody 1 ug/ml
# [24] = molecular target: T1, human PD-L2 expressed on 300.19 cells (human); assay: FACS competition, PD-1-Ig on hPD-L2 300 cells, mAb 0.37 ug/ml
# [25] = molecular target: human PD-L1 expressed on 300.19 cells (human) (UniProt Q9NZQ7); assay: FACS blockade, B7-1-hIgG on 300-hPD-L1 cells, mAb 0.0098 ug/ml
# [26] = molecular target: human PD-L1 expressed on 300.19 cells (human) (UniProt Q9NZQ7); assay: FACS competition, PD-1-Ig on hPD-L1 300 cells, mAb 3.3 ug/ml
# [27] = molecular target: human PD-L1 expressed on 300.19 cells (human) (UniProt Q9NZQ7); assay: FACS blockade, PD-1-hIgG1 on PD-L1 300.19 cells
# [28] = molecular target: human PD-L1 expressed on 300.19 cells (human) (UniProt Q9NZQ7); assay: FACS on hPD-L1 300 cells, antibody 10 ug/ml
# [29] = molecular target: T1, human PD-L2 expressed on 300.19 cells (human); assay: FACS competition, PD-1-Ig on hPD-L2 300 cells, mAb 10 ug/ml
# [30] = molecular target: human PD-L1 expressed on 300.19 cells (human) (UniProt Q9NZQ7); assay: FACS competition, PD-1-Ig on hPD-L1 300 cells, mAb 90 ug/ml
# [31] = molecular target: T1, human PD-L2 expressed on 300.19 cells (human); assay: FACS competition, PD-1-Ig on hPD-L2 300 cells, mAb 3.3 ug/ml
# [32] = molecular target: human PD-L1 expressed on 300.19 cells (human) (UniProt Q9NZQ7); assay: FACS competition, PD-1-Ig on hPD-L1 300 cells, mAb 10 ug/ml
# [33] = molecular target: T1, human PD-L2 expressed on 300.19 cells (human); assay: FACS on hPD-L2 300 cells, antibody 0.1 ug/ml
# [34] = molecular target: T1, human PD-L2 expressed on 300.19 cells (human); assay: FACS competition, PD-1-Ig on hPD-L2 300 cells, mAb 90 ug/ml
# [35] = molecular target: human PD-L1 expressed on 300.19 cells (human) (UniProt Q9NZQ7); assay: FACS blockade, B7-1-hIgG on 300-hPD-L1 cells, mAb 20 ug/ml
# [36] = molecular target: human PD-L1 expressed on 300.19 cells (human) (UniProt Q9NZQ7); assay: FACS competition, PD-1-Ig on hPD-L1 300 cells, mAb 0.04 ug/ml
# [37] = molecular target: human PD-L1 expressed on 300.19 cells (human) (UniProt Q9NZQ7); assay: FACS competition, PD-1-Ig on hPD-L1 300 cells, mAb 0.12 ug/ml
# [38] = molecular target: human PD-L1 expressed on 300.19 cells (human) (UniProt Q9NZQ7); assay: FACS competition, PD-1-Ig on hPD-L1 300 cells, mAb 30 ug/ml
# [39] = molecular target: T1, human PD-L2 expressed on 300.19 cells (human); assay: FACS, hybridoma supernatant on 300.19 cells expressing human PD-L2
# [40] = molecular target: T1, human PD-L2 expressed on 300.19 cells (human); assay: FACS on hPD-L2 300 cells, supernatant 1 to 100
# [41] = molecular target: T1, human PD-L2 expressed on 300.19 cells (human); assay: FACS on hPD-L2 300 cells, supernatant 1 to 10
# [42] = molecular target: T1, human PD-L2 expressed on 300.19 cells (human); assay: FACS on hPD-L2 300 cells, supernatant undiluted
Molecule,Mean of PE Signal (bound PD-1-Ig) [1],Mean of PE Signal (bound B7-1-Ig) [2],Mean of PE Signal (bound PD-1-Ig) [4],Mean of PE Signal (bound PD-1-Ig) [5],Mean of PE Signal (bound B7-1-Ig) [6],MFI of bound PD-1-Ig (inversely proportional to blockage) [7],Mean of PE Signal (bound PD-1-Ig) [8],Mean of PE signal [9],Mean of PE Signal (bound B7-1-Ig) [10],Mean of PE Signal (bound B7-1-Ig) [11],Mean of PE signal [12],Mean of PE Signal (bound PD-1-Ig) [15],Mean of PE Signal (bound B7-1-Ig) [16],Mean of PE Signal (bound PD-1-Ig) [19],Mean of PE Signal (bound B7-1-Ig) [21],Mean of PE Signal (bound PD-1-Ig) [24],Mean of PE Signal (bound PD-1-Ig) [29],Mean of PE Signal (bound PD-1-Ig) [31],Mean of PE Signal (bound PD-1-Ig) [34],Mean of PE Signal (bound B7-1-Ig) [35],also measured
MOPC31C isotype control antibody,13500,3550,54200,58400,3720,19200,13600,250,4320,3580,164,60800,4760,59100,3990,60600,52500,52600,53500,3590,MFI [3]: 19; Mean of PE signal [13]: 173; Mean of PE Signal (bound B7-1-Ig) [14]: 3710; Mean of PE Signal (bound B7-1-Ig) [17]: 3960; MFI [18]: 45; Mean of PE Signal (bound B7-1-Ig) [20]: 3490; Mean of PE Signal (bound B7-1-Ig) [22]: 3880; Mean of PE signal [23]: 183; Mean of PE Signal (bound B7-1-Ig) [25]: 4410; Mean of PE Signal (bound PD-1-Ig) [26]: 11900; MFI of bound PD-1-Ig (inversely proportional to blockage) [27]: 26700; Mean of PE signal [28]: 263; Mean of PE Signal (bound PD-1-Ig) [30]: 11800; Mean of PE Signal (bound PD-1-Ig) [32]: 12600; Mean of PE signal [33]: 149; Mean of PE Signal (bound PD-1-Ig) [36]: 13300
"4H1 monoclonal antibody (antibody, V domains shown) VH: DVQLQESGPGLVKPSQSLSLTCTVTDYSITSDYAWTWIRQFPGNKLEWMGYITYRGTTRYNPSLTSRISFTRDTSKNQLFLQLNSVTTEDTGTYCCARSMITTGYYAMDYWGQGTSVTVSS VL: DIVMTQSHKFMSTSVGDRVSISCKASQDVGISVAWYQQKPGQSPKLLIYWASTRHTGVPVRFTGSGSGTDFTLTISNVQSEDLADYFCQQYSSYPPTFGAGTKLELK",,,56100,54600,,21100,,,,,,54700,,52500,,52400,56800,56000,52200,,MFI [39]: 93; Mean of PE signal [40]: 672; Mean of PE signal [41]: 757; Mean of PE signal [42]: 840

# Continued, in another order:
Mean of PE Signal (bound PD-1-Ig) [1],Mean of PE Signal (bound B7-1-Ig) [2],Mean of PE Signal (bound PD-1-Ig) [4],Mean of PE Signal (bound PD-1-Ig) [5],Mean of PE Signal (bound B7-1-Ig) [6],MFI of bound PD-1-Ig (inversely proportional to blockage) [7],Mean of PE Signal (bound PD-1-Ig) [8],Mean of PE signal [9],Mean of PE Signal (bound B7-1-Ig) [10],Mean of PE Signal (bound B7-1-Ig) [11],Mean of PE signal [12],Mean of PE Signal (bound PD-1-Ig) [15],Mean of PE Signal (bound B7-1-Ig) [16],Mean of PE Signal (bound PD-1-Ig) [19],Mean of PE Signal (bound B7-1-Ig) [21],Mean of PE Signal (bound PD-1-Ig) [24],Mean of PE Signal (bound PD-1-Ig) [29],Mean of PE Signal (bound PD-1-Ig) [31],Mean of PE Signal (bound PD-1-Ig) [34],Mean of PE Signal (bound B7-1-Ig) [35],Molecule,also measured
,,,,,,,,397,,,,3500,,4280,,,,,4540,C1.18 mIgG2a control (antibody),
65,797,53900,56100,853,,51,109000,807,853,150,58800,1710,53900,1230,52900,53800,56700,55100,811,"29E.2A3 (antibody, from a related filing, V domains shown) VH: EVQLQQSGPELVKPGASVKMSCKASGYTFTSYVMHWVKQKPGQGLEWIGYVNPFNDGTKYNEMFKGKATLTSDKSSSTAYMELSSLTSEDSAVYYCARQAWGYPWGQGTLVTVSA VL: DIVLTQSPASLAVSLGQRATISCRATESVEYYGTSLVQWYQQKPGQPPKLLIYAASSVDSGVPARFSGSGSGTDFSLTIHPVEEDDIAMYFCQQSRRVPYTFGGGTKLEIK",Mean of PE Signal (bound PD-1-Ig) [37]: 523; Mean of PE signal [13]: 251; Mean of PE Signal (bound B7-1-Ig) [14]: 850; Mean of PE Signal (bound B7-1-Ig) [17]: 770; Mean of PE Signal (bound B7-1-Ig) [20]: 788; Mean of PE Signal (bound B7-1-Ig) [22]: 823; Mean of PE signal [23]: 234000; Mean of PE Signal (bound B7-1-Ig) [25]: 2540; Mean of PE Signal (bound PD-1-Ig) [26]: 50; Mean of PE signal [28]: 235000; Mean of PE Signal (bound PD-1-Ig) [30]: 54; Mean of PE Signal (bound PD-1-Ig) [38]: 53; Mean of PE Signal (bound PD-1-Ig) [32]: 52; Mean of PE signal [33]: 150; Mean of PE Signal (bound PD-1-Ig) [36]: 6100
